Measurements taken from US11827701B2, “IL-6 binding molecules” (argenx BV, priority 2012, dated 2023).
Changes are numbered by the printed parent chain.

Legend:
IGROV-1 epithelial cells = assay: Epithelial ovarian cancer mouse xenograft (survival); format: in vivo; conditions: 4 or 20 mg/kg biweekly, nude mice
Protocol: The in vivo potency of clone 129D3 was determined using a mouse xenogaft model. IGROV-1 epithelial cells (5×10^6) were injected subcutaneously into nude mice. After three days, mice were administered 129D3 or CNTO328 biweekly, at a dosage of 4 or 20 mg/kg. There were 5 mice per group and 10 mice in the control group. Percentage survival of mice in each study group was determined each week and the results plotted as a survival curve.

[1] = Thermal stability (melting temperature), functional antibody measured in Biacore; format: physicochemical
Protocol: To examine the thermal stability of the germlined and the parental versions of 68F2 in full length human IgG1 format, antibody samples were incubated at a concentration of 100 μg/ml (in PBS) at 4, 50, 55, 60, 65, 70 and 75° C. for 1 hour. Following this, the samples were cooled down slowly during a period of 15 minutes to 25° C. and kept at this temperature for 2 hours, after which they were stored overnight at 4° C. Following centrifugation to remove precipitates (of denatured antibody), the concentration of functional antibody remaining in solution was measured using Biacore (1/10 dilution in PBS and 1/10 in HBSEP). The slope of the association curve obtained after injection on the IL-6 immobilized chip is a measure of the concentration of functional antibody.

[2] = Pharmacokinetic study, single intravenous dose; format: in vivo, cynomolgus monkey
Protocol: Pharmacokinetic analysis of antibody clone 129D3 formatted as various IgG1 molecules was performed. The following antibodies were analysed: Wild-type IgG1 129D3 (129D3-WT), IgG1 129D3 with the mutations M252Y/S254T/T256E in the Fc region (129D3-YTE), and IgG1 129D3 with the mutations H433K and N434F in the Fc region (129D3-HN).
Cynomolgus monkeys (3 per antibody tested) were injected intravenously with a single 5 mg/kg dose of 129D3-WT, 129D3-YTE, or 129D3-HN. Samples were taken at different time points and tested for plasma concentration of mAb by the ELISA. Specifically, a microtiterplate (Maxisorb Nunc) was coated with 1 ug/ml IL-6 (Immunotools) in PBS overnight at 4C. The plate was washed 2 times with PBS-Tween and blocked for 2 hours with 300 μl PBS-1% casein. After 2 washes with PBS-Tween, the samples were applied. All dilutions were made in 1% pooled blank plasma (this is a pool from 3 naive cynomolgus monkeys, see chapter 4.2). The samples were allowed to bind for 2 hours at RT. Plates were then washed 5 times with PBS-Tween and goat biotinilated anti-human IgG heavy and light chain monkey adsorbed polyclonal antibodies were applied at a 1000-fold dilution (Bethyl, catno: A80-319B) and allowed to bind for 1 hour at RT. After washing the plates 5 times with PBS-Tween, streptavidin conjugated with HRP (Jackson Immunoresearch 016-030-084) was applied at a 300,000-fold dilution and allowed to bind for 1 hour at RT. Plates were then washed 5 times with PBS-Tween and a 1:1 mixture of TMB (calbiochem CL07)-s(HS)TMB weakener (SDT, #sTMB-W) was added. The staining was allowed to proceed for 10 minutes and then stopped with 0.5 M […], after which the Optical Density was measured at 450 nm. The samples were analysed four times and 129D3-WT (from the same batch that was injected into the animals) was used for a standard curve.
The pharmacokinetic profiles for the different 129D3 IgG1 antibodies are shown graphically in FIG. 12 (the results are shown are the average result of the group of monkeys).

RXF393 cells = assay: Renal cell cancer mouse xenograft model; format: in vivo; conditions: 3 mg/kg
Protocol: The in vivo efficacy of clones 68F2 was investigated in a renal cell cancer mouse xenograft model. […] Briefly, RXF393 cells (2×10^6) were injected subcutaneously at both lateral sides of a nude mouse. Tumors were allowed to grow to a volume between of 50 en 300 mm^3, prior to antibody administration. 90% of the injected mice developed a tumor. 40 mice were split into 5 groups of 8 mice. Each group was received intraperatoneal injection of either PBS (control) or a specific dose of clone 68F2 (1, 3, 10, or 30 mg/kg). Tumor size and survival was monitored twice per week.

[3] = Production level of IgG1 after transient expression in HEK293E cells; conditions: IgG1, protein A purified
Protocol: The VH and VL of the germlined versions of 68F2 were recloned in pUPE Heavy Chain and Light Chain expression vectors, respectively, for transient expression of full-length IgG1 antibodies. After transient expression in HEK293E cells, IgG1 antibodies were purified with protein A and quantified by measurement of OD280. Table 19 below summarizes the production levels of the germlined derivatives together with the levels of the 68F2 parental antibody. Potencies (in pM) were also measured in a 7TD1 based proliferation assay for each antibody.

[4] = single intravenous administration, cynomolgus monkey, non-compartmental

B1: 129D3: final germlined variant of 68F2; 129D3-WT is wild-type IgG1 129D3 (antibody, listed as Lama glama, V domains shown)
VH: EVQLQESGPGLVKPSQTLSLTCTVSGGSITSRYYAWSWIRQPPGKGLEWIGVIDYDGDTYYSPSLKSRVSISWDTSKNQFSLKLSSVTPADTAVYYCARDPDVVTGFHYDYWGQGTMVTVSS
VL: QSALTQPPSVSGTPGQSVTISCAGANNDIGTYAYVSWYQQLPGTAPKLMIYKVTTRASGIPDRFSGSKSGNTASLTISGLQAEDEADYYCASYRNFNNAVFGTGTKLTVL
modifications: IgG1 constant regions
notes: final germlined variant of 68F2; 129D3-WT is wild-type IgG1 129D3
IGROV-1 epithelial cells
  in vivo potency (survival): superior to the benchmark CNTO328 IL-6 antibody
[1]; human IgG1
  Tm higher than the parental 68F2 antibody: 3 °C
[1]; human IgG1, 100 μg/ml in PBS, 1 hour
  Tm: around 70 °C
[2]; 5 mg/kg i.v.
  half-life: about 15.6 days
[2]; [4]
  MRT (Mean Residence Time): 22.4 days
  T½ (elimination half-life): 15.6 days
  k (mean elimination rate constant): 0.0468 day⁻¹
RXF393 cells
  survival relative to control: effective at delaying death of mice relative to control
  tumor outgrowth: effective at inhibiting tumor outgrowth

B2: 129F2: germlined variant of 68F2, IgG1 (antibody, listed as Lama glama, V domains shown)
VH: B1 VH with S70T, P89A, A90E
VL: B1 VL with S17T, A82S, T103G
modifications: IgG1 constant regions
notes: germlined variant of 68F2, IgG1
[3]
  production level / production yield: 9 µg/mL
